Consider seven molecules from patent publication US20260001928A1 (CORTERIA PHARMACEUTICALS, priority 2022, published 2026).

The target in test [1] is human corticotropin-releasing factor 2a (CRF2a receptor) (human), Q13324. Put plainly: cell-based or functional assay.
In another test the target is T1, CRF1R receptor (UniProt P34998 24-415, limits assumed).
T1 sequence (looked up): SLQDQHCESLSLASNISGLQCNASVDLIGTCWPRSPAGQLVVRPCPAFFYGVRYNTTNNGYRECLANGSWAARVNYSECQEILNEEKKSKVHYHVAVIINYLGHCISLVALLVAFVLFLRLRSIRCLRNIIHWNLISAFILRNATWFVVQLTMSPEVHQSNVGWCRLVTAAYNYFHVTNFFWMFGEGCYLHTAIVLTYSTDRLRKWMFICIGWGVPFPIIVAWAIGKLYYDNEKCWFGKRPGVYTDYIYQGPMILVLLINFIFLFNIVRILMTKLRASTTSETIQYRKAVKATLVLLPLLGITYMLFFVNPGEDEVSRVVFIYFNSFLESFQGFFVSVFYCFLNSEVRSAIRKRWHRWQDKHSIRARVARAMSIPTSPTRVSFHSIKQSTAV
Put plainly: cell-based or functional assay.

*1 amine or outer side, *2 acyl side, *3 side chain or, on linkers, in order; H or OH if unused. Where no end group is shown, it is not given here. Side-chain parts run from the residue outwards. [ ]: non-standard residue; d: D form. The star is where a group is joined. C16 diacid = O=C(O)CCCCCCCCCCCCCCC(=O)*; γGlu = O=C(O)[C@H](CCC(=O)[*:2])N[*:1]; NMeI = CC[C@H](C)[C@H](NC)C(=O)O; Api = NC1(C(=O)O)CCNCC1; Hexanoyl = CCCCCC(=O)*; Aib = CC(C)(N)C(=O)O

Chain of human corticotropin-releasing factor 2a (CRF2a receptor) (human), Q13324 (Q13324 20-411): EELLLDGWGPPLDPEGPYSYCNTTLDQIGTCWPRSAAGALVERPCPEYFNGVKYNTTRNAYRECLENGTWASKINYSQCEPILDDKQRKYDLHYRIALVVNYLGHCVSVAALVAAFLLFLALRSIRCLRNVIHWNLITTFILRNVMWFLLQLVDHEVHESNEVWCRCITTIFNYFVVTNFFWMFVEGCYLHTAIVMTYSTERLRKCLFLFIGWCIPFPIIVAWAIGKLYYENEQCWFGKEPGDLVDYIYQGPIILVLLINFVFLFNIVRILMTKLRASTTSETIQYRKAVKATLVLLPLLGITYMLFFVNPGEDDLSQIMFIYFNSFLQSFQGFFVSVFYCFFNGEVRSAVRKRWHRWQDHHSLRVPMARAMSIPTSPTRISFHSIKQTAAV

What is called EC50 is the concentration at which the effect is half-maximal. The molecule VLSLD[dV]PIKLK([γGlu-C16 diacid])QILLKQERQKKQREQAEKNKQILEQV-NH2 [SEQ ID NO 4] showed an EC50 [nM] (cAMP) in test [1] of 0.44 nM. Besides, in the test with CRF1R receptor, the “EC50” value was > 250 nM and the “Emax (% I)” value amounted to 4%.

B1: SEQ ID NO 152 (peptide)
peptide: Ac-IVLSLD[dV]PIKLK([γGlu-C16 diacid])KILLEQEKQKAQREQAETN[Api]QILAQV-NH2
SMILES: CC[C@H](C)[C@H](NC(C)=O)C(=O)N[C@H](C(=O)N[C@@H](CC(C)C)C(=O)N[C@@H](CO)C(=O)N[C@@H](CC(C)C)C(=O)N[C@@H](CC(=O)O)C(=O)N[C@@H](C(=O)N1CCC[C@H]1C(=O)N[C@H](C(=O)N[C@@H](CCCCN)C(=O)N[C@@H](CC(C)C)C(=O)N[C@@H](CCCCNC(=O)CC[C@H](NC(=O)CCCCCCCCCCCCCCC(=O)O)C(=O)O)C(=O)N[C@@H](CCCCN)C(=O)N[C@H](C(=O)N[C@@H](CC(C)C)C(=O)N[C@@H](CC(C)C)C(=O)N[C@@H](CCC(=O)O)C(=O)N[C@@H](CCC(N)=O)C(=O)N[C@@H](CCC(=O)O)C(=O)N[C@@H](CCCCN)C(=O)N[C@@H](CCC(N)=O)C(=O)N[C@@H](CCCCN)C(=O)N[C@@H](C)C(=O)N[C@@H](CCC(N)=O)C(=O)N[C@@H](CCCNC(=N)N)C(=O)N[C@@H](CCC(=O)O)C(=O)N[C@@H](CCC(N)=O)C(=O)N[C@@H](C)C(=O)N[C@@H](CCC(=O)O)C(=O)N[C@H](C(=O)N[C@@H](CC(N)=O)C(=O)NC1(C(=O)N[C@@H](CCC(N)=O)C(=O)N[C@H](C(=O)N[C@@H](CC(C)C)C(=O)N[C@@H](C)C(=O)N[C@@H](CCC(N)=O)C(=O)N[C@H](C(N)=O)C(C)C)[C@@H](C)CC)CCNCC1)[C@@H](C)O)[C@@H](C)CC)[C@@H](C)CC)C(C)C)C(C)C
In test [1], B1 yielded an EC50 [nM] (cAMP) of 0.51 nM. For the same molecule, the “Emax (% I)” value with CRF1R receptor turned out to be 25%.

B2: SEQ ID NO 155 (peptide)
peptide: [NMeI]VLSLD[dV]PIKLK([γGlu-C16 diacid])KILLEQEKQK[Aib]QREQAETN[Api]QILAQV-NH2
modifications: N-terminus assumed
SMILES: CC[C@H](C)[C@H](NC)C(=O)N[C@H](C(=O)N[C@@H](CC(C)C)C(=O)N[C@@H](CO)C(=O)N[C@@H](CC(C)C)C(=O)N[C@@H](CC(=O)O)C(=O)N[C@@H](C(=O)N1CCC[C@H]1C(=O)N[C@H](C(=O)N[C@@H](CCCCN)C(=O)N[C@@H](CC(C)C)C(=O)N[C@@H](CCCCNC(=O)CC[C@H](NC(=O)CCCCCCCCCCCCCCC(=O)O)C(=O)O)C(=O)N[C@@H](CCCCN)C(=O)N[C@H](C(=O)N[C@@H](CC(C)C)C(=O)N[C@@H](CC(C)C)C(=O)N[C@@H](CCC(=O)O)C(=O)N[C@@H](CCC(N)=O)C(=O)N[C@@H](CCC(=O)O)C(=O)N[C@@H](CCCCN)C(=O)N[C@@H](CCC(N)=O)C(=O)N[C@@H](CCCCN)C(=O)NC(C)(C)C(=O)N[C@@H](CCC(N)=O)C(=O)N[C@@H](CCCNC(=N)N)C(=O)N[C@@H](CCC(=O)O)C(=O)N[C@@H](CCC(N)=O)C(=O)N[C@@H](C)C(=O)N[C@@H](CCC(=O)O)C(=O)N[C@H](C(=O)N[C@@H](CC(N)=O)C(=O)NC1(C(=O)N[C@@H](CCC(N)=O)C(=O)N[C@H](C(=O)N[C@@H](CC(C)C)C(=O)N[C@@H](C)C(=O)N[C@@H](CCC(N)=O)C(=O)N[C@H](C(N)=O)C(C)C)[C@@H](C)CC)CCNCC1)[C@@H](C)O)[C@@H](C)CC)[C@@H](C)CC)C(C)C)C(C)C
With B2, the EC50 [nM] (cAMP) in test [1] came to 0.51 nM. For the same molecule, the “Emax (% I)” value with CRF1R receptor turned out to be 26%.

B3: SEQ ID NO 75 (peptide)
peptide: [NMeI]VLSLD[dV]PIKLK([γGlu-C16 diacid])KILLEQEKQK[Aib]QREQAETN[Aib]QILAQV-NH2
modifications: N-terminus assumed
SMILES: CC[C@H](C)[C@H](NC)C(=O)N[C@H](C(=O)N[C@@H](CC(C)C)C(=O)N[C@@H](CO)C(=O)N[C@@H](CC(C)C)C(=O)N[C@@H](CC(=O)O)C(=O)N[C@@H](C(=O)N1CCC[C@H]1C(=O)N[C@H](C(=O)N[C@@H](CCCCN)C(=O)N[C@@H](CC(C)C)C(=O)N[C@@H](CCCCNC(=O)CC[C@H](NC(=O)CCCCCCCCCCCCCCC(=O)O)C(=O)O)C(=O)N[C@@H](CCCCN)C(=O)N[C@H](C(=O)N[C@@H](CC(C)C)C(=O)N[C@@H](CC(C)C)C(=O)N[C@@H](CCC(=O)O)C(=O)N[C@@H](CCC(N)=O)C(=O)N[C@@H](CCC(=O)O)C(=O)N[C@@H](CCCCN)C(=O)N[C@@H](CCC(N)=O)C(=O)N[C@@H](CCCCN)C(=O)NC(C)(C)C(=O)N[C@@H](CCC(N)=O)C(=O)N[C@@H](CCCNC(=N)N)C(=O)N[C@@H](CCC(=O)O)C(=O)N[C@@H](CCC(N)=O)C(=O)N[C@@H](C)C(=O)N[C@@H](CCC(=O)O)C(=O)N[C@H](C(=O)N[C@@H](CC(N)=O)C(=O)NC(C)(C)C(=O)N[C@@H](CCC(N)=O)C(=O)N[C@H](C(=O)N[C@@H](CC(C)C)C(=O)N[C@@H](C)C(=O)N[C@@H](CCC(N)=O)C(=O)N[C@H](C(N)=O)C(C)C)[C@@H](C)CC)[C@@H](C)O)[C@@H](C)CC)[C@@H](C)CC)C(C)C)C(C)C
B3 gave an EC50 [nM] (cAMP) in test [1] of 0.19 nM. Also, the “Emax (% I)” value with CRF1R receptor was found to be 3%.

B4: SEQ ID NO 153 (peptide)
peptide: Ac-IVLSLD[dV]PIKLK([γGlu-C16 diacid])KILLEQEKQK[Aib]QREQAETN[Api]QILAQV-NH2
SMILES: CC[C@H](C)[C@H](NC(C)=O)C(=O)N[C@H](C(=O)N[C@@H](CC(C)C)C(=O)N[C@@H](CO)C(=O)N[C@@H](CC(C)C)C(=O)N[C@@H](CC(=O)O)C(=O)N[C@@H](C(=O)N1CCC[C@H]1C(=O)N[C@H](C(=O)N[C@@H](CCCCN)C(=O)N[C@@H](CC(C)C)C(=O)N[C@@H](CCCCNC(=O)CC[C@H](NC(=O)CCCCCCCCCCCCCCC(=O)O)C(=O)O)C(=O)N[C@@H](CCCCN)C(=O)N[C@H](C(=O)N[C@@H](CC(C)C)C(=O)N[C@@H](CC(C)C)C(=O)N[C@@H](CCC(=O)O)C(=O)N[C@@H](CCC(N)=O)C(=O)N[C@@H](CCC(=O)O)C(=O)N[C@@H](CCCCN)C(=O)N[C@@H](CCC(N)=O)C(=O)N[C@@H](CCCCN)C(=O)NC(C)(C)C(=O)N[C@@H](CCC(N)=O)C(=O)N[C@@H](CCCNC(=N)N)C(=O)N[C@@H](CCC(=O)O)C(=O)N[C@@H](CCC(N)=O)C(=O)N[C@@H](C)C(=O)N[C@@H](CCC(=O)O)C(=O)N[C@H](C(=O)N[C@@H](CC(N)=O)C(=O)NC1(C(=O)N[C@@H](CCC(N)=O)C(=O)N[C@H](C(=O)N[C@@H](CC(C)C)C(=O)N[C@@H](C)C(=O)N[C@@H](CCC(N)=O)C(=O)N[C@H](C(N)=O)C(C)C)[C@@H](C)CC)CCNCC1)[C@@H](C)O)[C@@H](C)CC)[C@@H](C)CC)C(C)C)C(C)C
As for B4, the EC50 [nM] (cAMP) in test [1] came to 0.41 nM. Moreover, the “Emax (% I)” value in the test with CRF1R receptor was 22%.

B5: SEQ ID NO 154 (peptide)
peptide: [NMeI]VLSLD[dV]PIKLK([γGlu-C16 diacid])KILLEQEKQKAQREQAETN[Api]QILAQV-NH2
modifications: N-terminus assumed
SMILES: CC[C@H](C)[C@H](NC)C(=O)N[C@H](C(=O)N[C@@H](CC(C)C)C(=O)N[C@@H](CO)C(=O)N[C@@H](CC(C)C)C(=O)N[C@@H](CC(=O)O)C(=O)N[C@@H](C(=O)N1CCC[C@H]1C(=O)N[C@H](C(=O)N[C@@H](CCCCN)C(=O)N[C@@H](CC(C)C)C(=O)N[C@@H](CCCCNC(=O)CC[C@H](NC(=O)CCCCCCCCCCCCCCC(=O)O)C(=O)O)C(=O)N[C@@H](CCCCN)C(=O)N[C@H](C(=O)N[C@@H](CC(C)C)C(=O)N[C@@H](CC(C)C)C(=O)N[C@@H](CCC(=O)O)C(=O)N[C@@H](CCC(N)=O)C(=O)N[C@@H](CCC(=O)O)C(=O)N[C@@H](CCCCN)C(=O)N[C@@H](CCC(N)=O)C(=O)N[C@@H](CCCCN)C(=O)N[C@@H](C)C(=O)N[C@@H](CCC(N)=O)C(=O)N[C@@H](CCCNC(=N)N)C(=O)N[C@@H](CCC(=O)O)C(=O)N[C@@H](CCC(N)=O)C(=O)N[C@@H](C)C(=O)N[C@@H](CCC(=O)O)C(=O)N[C@H](C(=O)N[C@@H](CC(N)=O)C(=O)NC1(C(=O)N[C@@H](CCC(N)=O)C(=O)N[C@H](C(=O)N[C@@H](CC(C)C)C(=O)N[C@@H](C)C(=O)N[C@@H](CCC(N)=O)C(=O)N[C@H](C(N)=O)C(C)C)[C@@H](C)CC)CCNCC1)[C@@H](C)O)[C@@H](C)CC)[C@@H](C)CC)C(C)C)C(C)C
The molecule B5 gave an EC50 [nM] (cAMP) in test [1] of 0.52 nM. Further, the “Emax (% I)” value with CRF1R receptor was 24%.

B6: SEQ ID NO 156 (peptide)
peptide: Hexanoyl-VLSLD[dV]PIKLK([γGlu-C16 diacid])KILLEQEKQKKQREQAETN[Aib]QILAQV-NH2
SMILES: CCCCCC(=O)N[C@H](C(=O)N[C@@H](CC(C)C)C(=O)N[C@@H](CO)C(=O)N[C@@H](CC(C)C)C(=O)N[C@@H](CC(=O)O)C(=O)N[C@@H](C(=O)N1CCC[C@H]1C(=O)N[C@H](C(=O)N[C@@H](CCCCN)C(=O)N[C@@H](CC(C)C)C(=O)N[C@@H](CCCCNC(=O)CC[C@H](NC(=O)CCCCCCCCCCCCCCC(=O)O)C(=O)O)C(=O)N[C@@H](CCCCN)C(=O)N[C@H](C(=O)N[C@@H](CC(C)C)C(=O)N[C@@H](CC(C)C)C(=O)N[C@@H](CCC(=O)O)C(=O)N[C@@H](CCC(N)=O)C(=O)N[C@@H](CCC(=O)O)C(=O)N[C@@H](CCCCN)C(=O)N[C@@H](CCC(N)=O)C(=O)N[C@@H](CCCCN)C(=O)N[C@@H](CCCCN)C(=O)N[C@@H](CCC(N)=O)C(=O)N[C@@H](CCCNC(=N)N)C(=O)N[C@@H](CCC(=O)O)C(=O)N[C@@H](CCC(N)=O)C(=O)N[C@@H](C)C(=O)N[C@@H](CCC(=O)O)C(=O)N[C@H](C(=O)N[C@@H](CC(N)=O)C(=O)NC(C)(C)C(=O)N[C@@H](CCC(N)=O)C(=O)N[C@H](C(=O)N[C@@H](CC(C)C)C(=O)N[C@@H](C)C(=O)N[C@@H](CCC(N)=O)C(=O)N[C@H](C(N)=O)C(C)C)[C@@H](C)CC)[C@@H](C)O)[C@@H](C)CC)[C@@H](C)CC)C(C)C)C(C)C
For the molecule B6, the EC50 [nM] (cAMP) in test [1] is 0.29 nM. Further, the “Emax (% I)” value with CRF1R receptor worked out at 8%.
